Source: US20120101037A1 (Hoffmann-La Roche, published 2012)
Non-standard residues stand in square brackets, D forms with d. Groups on a side chain read outwards from the residue. Primed or numbered codes have the meaning given here. *: point of attachment. dPhe(3,5-F2) = N[C@H](Cc1cc(F)cc(F)c1)C(=O)O; dPhe(3-Cl) = N[C@H](Cc1cccc(Cl)c1)C(=O)O; dPhe(4-Cl) = N[C@H](Cc1ccc(Cl)cc1)C(=O)O; dPhe(2-Cl) = N[C@H](Cc1ccccc1Cl)C(=O)O; dPhe(3-F) = N[C@H](Cc1cccc(F)c1)C(=O)O; Desaminotyrosyl = O=C(CCc1ccc(O)cc1)*; dPhe(2-F) = N[C@H](Cc1ccccc1F)C(=O)O; dPhe(3,4,5-F3)′ = not defined here; Hydrocinnamoyl = O=C(CCc1ccccc1)*; SSA = succinimidyl succinamide

B1: Ac-(D)-3-Pya-Ala-Glu-Gly-Thr-Phe-Ile-Ser-Asp-Tyr-Ser-Ile-Ala-Met-Asp-Lys-Ile-His-Gln-Gln-Asp-Phe-Val-Asn-Trp-Leu-Leu-Ala-Gln-Lys-NH2 (peptide)
peptide: AAEGTFISDYSIAMDKIHQQDFVNWLLAQK
modifications: position 1 is acetylated D-3-pyridylalanine (Ac-(D)3Pya); C-terminal amide (NH2)

Molecular target: T1, human GIPR (glucose-dependent insulinotropic polypeptide receptor) (human, UniProt P48546 22-466)
T1 sequence (looked up): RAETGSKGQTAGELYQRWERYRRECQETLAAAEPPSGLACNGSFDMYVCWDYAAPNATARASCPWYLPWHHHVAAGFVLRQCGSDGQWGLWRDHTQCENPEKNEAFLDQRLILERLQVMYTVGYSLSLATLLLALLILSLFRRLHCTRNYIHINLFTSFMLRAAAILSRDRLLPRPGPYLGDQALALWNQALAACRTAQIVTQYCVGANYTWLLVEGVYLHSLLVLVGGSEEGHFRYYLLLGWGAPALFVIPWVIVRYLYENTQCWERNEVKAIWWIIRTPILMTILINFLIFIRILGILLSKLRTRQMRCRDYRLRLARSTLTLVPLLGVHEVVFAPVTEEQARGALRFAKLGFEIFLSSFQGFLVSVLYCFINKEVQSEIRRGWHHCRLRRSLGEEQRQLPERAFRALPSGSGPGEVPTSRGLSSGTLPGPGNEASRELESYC
Assay: cell-based or functional assay

| Binder | % activation of cAMP [%] | EC50 (nMol), cAMP [nmol] |
| --- | --- | --- |
| Ac-[dF]AEGTFISDYSIAMDKIHQQDFVNWLLAQK-NH2 (also: 1:2 TFA salt) | 102 | 0.685 |
| [Hydrocinnamoyl]AEGTFISDYSIAMDKIHQQDFVNWLLAQK-NH2 (also: 1:2 TFA salt) | 101 | 0.797 |
| Ac-[dW]AEGTFISDYSIAMDKIHQQDFVNWLLAQK-NH2 (also: 1:2 TFA salt) | 102 | 0.1 |
| B1 | 102 | 0.08 |
| Ac-[dPhe(2-Cl)]AEGTFISDYSIAMDKIHQQDFVNWLLAQK-NH2 (also: 1:2 TFA salt) | 104 | 0.121 |
| Ac-[dPhe(3-Cl)]AEGTFISDYSIAMDKIHQQDFVNWLLAQK-NH2 (also: 1:2 TFA salt) | 106 | 0.072 |
| Ac-[dPhe(4-Cl)]AEGTFISDYSIAMDKIHQQDFVNWLLAQK-NH2 (also: 1:2 TFA salt) | 106 | 0.025 |
| Ac-[dPhe(2-F)]AEGTFISDYSIAMDKIHQQDFVNWLLAQK-NH2 (also: 1:2 TFA salt) | 99.8 | 0.0075 |
| Ac-[dPhe(3-F)]AEGTFISDYSIAMDKIHQQDFVNWLLAQK-NH2 (also: 1:2 TFA salt) | 98 | 0.058 |
| Ac-[dPhe(3,5-F2)]AEGTFISDYSIAMDKIHQQDFVNWLLAQK-NH2 (also: 1:2 TFA salt) | 99.6 | 0.003 |
| Ac-[dPhe(3,4,5-F3)′]AEGTFISDYSIAMDKIHQQDFVNWLLAQK-NH2 (also: 1:2 TFA salt) | 100 | 0.104 |
| Ac-[dY]AEGTFISDYSIAMDAIHQQDFVNWLLAQK-NH2 (also: 1:1 TFA salt) | 100 | 0.0005 |
| Ac-[dY]AEGTFISDYSIAMDAIHQQDFVNWLLAQK([SSA-PEGm 12,000])-NH2 | 100 | 0.0022 |
| Ac-[dY]AEGTFISDYSIAMDAIHQQDFVNWLLAQK([SSA-PEGm 20,000])-NH2 | 102 | 0.0049 |
| Ac-[dY]AEGTFISDYSIAMDAIHQQDFVNWLLAQK([SSA-PEGm 30,000])-NH2 | 101 | 0.0017 |
| Ac-YAEGTFISDYSIAMDKIHQQDFVNWLLAQK-NH2 (also: 1:2 TFA salt) | 100 | – |
| Ac-[dY]AEGTFISDYSIAMDKIHQQDFVNWLLAQK-NH2 (also: 1:2 TFA salt) | 102 | 0.0007 |
| [Desaminotyrosyl]AEGTFISDYSIAMDKIHQQDFVNWLLAQK-NH2 (also: 1:2 TFA salt) | 103 | 0.095 |
